In patent US20250215467A1, “L-THREONINE TRANSALDOLASES AND USES THEREOF” (University of Delaware, priority 2022, published 2025):

Experiments:
Type in all cases: biochemical
[1] = TTA-ADH coupled assay at different L-Thr concentrations (apparent L-Thr KM and kcat)
Procedure: (§1) High-throughput screening of purified TTAs was performed with a TTA-ADH coupled assay using purified TTA and commercially available alcohol dehydrogenase from S. cerevisiae purchased from MilliporeSigma. Aldehyde stocks were prepared in 50-100 mM solutions in DMSO or acetonitrile. Reaction mixtures were prepared in a 96-well plate with 100 μL of 100 mM phosphate buffer pH 7.5, 0.5 mM NADH, 0.4 mM PLP, 15 mM MgCl2, and 100 mM L-Thr with the addition of 0.25 mM to 1 mM aldehyde depending on the background absorbance at 340 nm (Table 4), 10 U ScADH, and 0.25 μM purified TTA unless otherwise specified. Reactions were initiated with the addition of enzyme. […] The following controls were included for every assay: reaction mixture without aldehyde, without TTA, and without enzyme (TTA or ADH). Rates were calculated by identifying the linear region at the beginning of the kinetic run and converting the depletion in absorbance to the depletion of mM NADH using an NADH standard curve.
We next sought to determine the affinity of these enzymes for L-Thr, which we obtained by performing the TTA-ADH coupled assay at different L-Thr concentrations (FIG. 16b). […] Two differences between our assays were the substrate, phenylacetaldehyde (14) instead of 4-nitrophenylacetylaldehyde (15), and the assay format, ADH coupling rather than a discontinuous HPLC assay. Because a live cellular environment would also contain alcohol dehydrogenases for reduction of acetaldehyde, it is possible that the KM values that we are measuring using the TTA-ADH coupled assay may be more realistic for our envisioned applications.

[2] = In vitro CAR-TTA coupled assay with HPLC analysis; conditions: CAR plus 2 μM PbTTA, 100 mM L-Thr, 20 h
Procedure: In vitro CAR activity assays were performed as previously reported (Gopal et al. biorxiv, 2022) using 2 mM NADPH and 2 mM ATP, 20 mM MgCl2, and 0.75 μM CAR and E. coli pyrophosphatase. For in vitro coupling with the CAR and TTA, the same in vitro CAR assay was performed with the addition of 2 μM TTA, 0.4 mM PLP, and 100 mM L-Thr; however, rather than monitoring the reaction with the plate reader, the plate was left shaking at 1000 RPM with an orbital radius of 1.25 mm at 30° C. overnight. The reaction was then quenched after 20 h with 100 μL of 3:1 methanol:2 M HCl. The supernatant was then separated from the protein precipitate using centrifugation and analyzed via HPLC.
Metabolites of interest were quantified via high-performance liquid chromatography (HPLC) using an Agilent 1260 Infinity model equipped with a Zorbax Eclipse Plus-C18 column. To quantify aldehyde and β-OH-nsAAs, an initial mobile phase of solvent A/B=95/5 was used (solvent A, water+0.1% TFA; solvent B, acetonitrile+0.1% TFA) and maintained for 5 min. A gradient elution was performed (A/B) as follows: gradient from 95/5 to 50/50 for 5-12 min, gradient from 50/50 to 0/100 for 12-13 min, and gradient from 0/100 to 95/5 for 13-14 min. A flow rate of 1 mL min-1 was maintained, and absorption was monitored at 210, 250 and 280 nm. […]

[3] = TTA-ADH coupled assay, substrate scope of TTAs on aromatic aldehydes
Procedure: as §1
We specifically selected substrates with ring substituents with different electron withdrawing properties (1, 3, 6, 7, 8), substituent size (12), and aldehyde chain length (15) to compare the activity of the putative TTAs to ObiH. We were also encouraged by the activity of PbTTA and KaTTA on vanillin and protocatechualdehyde which are substrates that would form products like commercially available therapeutic, Droxidopa (FIG. 18).
To explore the possibility that DbTTA and TmTTA are TTAs active on other related aldehydes, we sought to examine their activity with L-Thr and aldehyde substrates with different ring substituent position (2), bulkier, hydrophobic chemistry (10), and aldehyde chain length (14) using the TTA-ADH coupled assay.

[4] = In vitro assay over 20 h with HPLC analysis (amino acid substrate specificity, diastereomeric excess); conditions: 3 as aldehyde substrate
Procedure: Metabolites of interest were quantified via high-performance liquid chromatography (HPLC) using an Agilent 1260 Infinity model equipped with a Zorbax Eclipse Plus-C18 column. To quantify aldehyde and β-OH-nsAAs, an initial mobile phase of solvent A/B=95/5 was used (solvent A, water+0.1% TFA; solvent B, acetonitrile+0.1% TFA) and maintained for 5 min. A gradient elution was performed (A/B) as follows: gradient from 95/5 to 50/50 for 5-12 min, gradient from 50/50 to 0/100 for 12-13 min, and gradient from 0/100 to 95/5 for 13-14 min. A flow rate of 1 mL min-1 was maintained, and absorption was monitored at 210, 250 and 280 nm.
We performed an in vitro assay over 20 h using 3 as the aldehyde substrate and either L-Thr, Glycine (Gly), or L-Serine (L-Ser) as the candidate amino acid. Since the TTA-ADH coupled assay is specific to L-Thr, we analyzed TTA activity via HPLC with a chemically synthesized β-OH-nsAA standard for the assumed product from 3.

B1: PbTTA: L-threonine transaldolase, SEQ ID NO: 16, Parachlamydiales bacterium, MBN2478762.1 (protein, listed as Parachlamydiales bacterium)
chain: METSLKDFETILHLINKEEIDSNDTIHMTANENIMSKLSKHYLKSTLSYRYHVGMFDDQKNLTVSRSCLIKNSLMLRCLSPIFLLEQQAREYVKKMFFAEYADFRPLSGMHTVFCILSTLTKPNDRVYVFTTESVGHAATVSLLKSLGRKVSFIPFCEKKLDIDLEKLSKQILIEKPNAILFDFGTPFYPLPIREIREIVGNDVKMIYDASHVLGLIAGGQFQNPLLEGCDVLIGNTHKTFPGPQKGMILYKNKSLGKEIATEIFKSAISAQHTHHAIALYVTIIEMYIHGKEYANQIIKNNHALSQALINEGFKIFKRKNQFSLSHMIAITGDFPIDHHVACADLHNSNISTNSRILYDFPAVRIGVQEVTRKGMKEKDMVQLAKFFKEIILDRKNISSKIKEFNNKFNSIEYSLDEIYEKLF
Km ([1]; apparent, phenylacetaldehyde (14) as aldehyde, ADH coupling, non-linear regression): 10.9 mM
L-Thr kcat compared with ObiH ([1]; phenylacetaldehyde as the aldehyde substrate): higher measured L-Thr kcat values than ObiH
β-OH-nsAA production from 4-azido-benzoic acid, in vitro CAR-TTA coupling [2]: successfully produced a β-OH-nsAA product
activity on vanillin and protocatechualdehyde ([3]; TTA-ADH coupled assay): activity
activity on a set of aromatic aldehyde substrates (substrate scope) ([3]; substrates 1, 3, 6, 7, 8, 12, 15): high activity on a diverse array of substrates
β-OH-nsAA formation using L-Ser or Gly [4]: no β-OH-nsAA formation
